Data reported in patent US20240261333A1, “NOVEL TARGETS FOR ENHANCING ANTI-TUMOR IMMUNITY” (THE BROAD INSTITUTE, INC., priority 2021, published 2024).

Legend:
ATP1A1 (human) = ATP1A1 (human) (UniProt P05023); assay: co-IP/MS, IgG control IP of C-FLAG B3GNT2 cell lysate
CAPZA1 (human) = CAPZA1 (human) (UniProt P52907); assay: as above
DNAJA1 (human) = DNAJA1 (human) (UniProt P31689); assay: as above
RPL12 (human) = RPL12 (human) (UniProt P30050); assay: as above
RPL14 (human) = RPL14 (human) (UniProt P50914); assay: as above
RPL24 (human) = RPL24 (human) (UniProt P83731); assay: as above
RPL30 (human) = RPL30 (human) (UniProt P62888); assay: as above
SLC25A4 (human) = SLC25A4 (human) (UniProt P12235); assay: as above
ABCF1 = ABCF1 (UniProt Q8NE71); assay: co-IP, anti-FLAG, lysate of C-FLAG B3GNT2 cells, mass spectrometry
ARPC2 = ARPC2 (UniProt O15144); assay: as above
CALM2 = CALM2 (UniProt P0DP24); assay: as above
CEP170 = CEP170 (UniProt Q5SW79); assay: as above
CNP = CNP (UniProt P09543); assay: as above
CSPG4 = CSPG4 (UniProt Q6UVK1); assay: as above
DPM1 = DPM1 (UniProt O60762); assay: as above
GNAS = GNAS (UniProt Q5JWF2); assay: as above
HSPH1 = HSPH1 (UniProt Q92598); assay: as above
HSPH1, sequence (Q92598 other isoform, or with tags, fused parts or gaps limits assumed): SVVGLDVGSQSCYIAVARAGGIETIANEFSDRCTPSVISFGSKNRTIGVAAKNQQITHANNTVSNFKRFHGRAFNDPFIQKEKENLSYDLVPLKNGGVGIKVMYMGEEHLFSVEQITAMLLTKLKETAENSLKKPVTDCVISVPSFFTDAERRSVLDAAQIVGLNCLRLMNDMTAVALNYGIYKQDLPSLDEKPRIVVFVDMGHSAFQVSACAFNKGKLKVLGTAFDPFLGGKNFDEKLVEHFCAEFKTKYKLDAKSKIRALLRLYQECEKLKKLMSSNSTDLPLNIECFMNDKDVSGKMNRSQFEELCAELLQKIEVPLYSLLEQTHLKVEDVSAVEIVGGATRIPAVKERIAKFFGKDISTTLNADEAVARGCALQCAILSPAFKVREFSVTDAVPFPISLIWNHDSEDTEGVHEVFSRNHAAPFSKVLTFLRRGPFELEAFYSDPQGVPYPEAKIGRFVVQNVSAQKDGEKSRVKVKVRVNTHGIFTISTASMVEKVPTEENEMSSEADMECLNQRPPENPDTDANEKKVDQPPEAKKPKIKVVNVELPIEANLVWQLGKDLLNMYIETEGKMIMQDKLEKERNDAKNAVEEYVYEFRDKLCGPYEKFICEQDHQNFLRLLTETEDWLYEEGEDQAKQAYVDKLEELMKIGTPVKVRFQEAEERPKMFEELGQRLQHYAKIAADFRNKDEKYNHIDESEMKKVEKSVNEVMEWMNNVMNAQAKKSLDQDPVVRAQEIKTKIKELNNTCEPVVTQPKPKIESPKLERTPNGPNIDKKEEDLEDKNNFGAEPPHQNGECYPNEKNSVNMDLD

LAMB1 = LAMB1 (UniProt P07942); assay: as above
LOXL4 = LOXL4 (UniProt Q96JB6); assay: as above
LOXL4, sequence (Q96JB6 25-756 limits assumed): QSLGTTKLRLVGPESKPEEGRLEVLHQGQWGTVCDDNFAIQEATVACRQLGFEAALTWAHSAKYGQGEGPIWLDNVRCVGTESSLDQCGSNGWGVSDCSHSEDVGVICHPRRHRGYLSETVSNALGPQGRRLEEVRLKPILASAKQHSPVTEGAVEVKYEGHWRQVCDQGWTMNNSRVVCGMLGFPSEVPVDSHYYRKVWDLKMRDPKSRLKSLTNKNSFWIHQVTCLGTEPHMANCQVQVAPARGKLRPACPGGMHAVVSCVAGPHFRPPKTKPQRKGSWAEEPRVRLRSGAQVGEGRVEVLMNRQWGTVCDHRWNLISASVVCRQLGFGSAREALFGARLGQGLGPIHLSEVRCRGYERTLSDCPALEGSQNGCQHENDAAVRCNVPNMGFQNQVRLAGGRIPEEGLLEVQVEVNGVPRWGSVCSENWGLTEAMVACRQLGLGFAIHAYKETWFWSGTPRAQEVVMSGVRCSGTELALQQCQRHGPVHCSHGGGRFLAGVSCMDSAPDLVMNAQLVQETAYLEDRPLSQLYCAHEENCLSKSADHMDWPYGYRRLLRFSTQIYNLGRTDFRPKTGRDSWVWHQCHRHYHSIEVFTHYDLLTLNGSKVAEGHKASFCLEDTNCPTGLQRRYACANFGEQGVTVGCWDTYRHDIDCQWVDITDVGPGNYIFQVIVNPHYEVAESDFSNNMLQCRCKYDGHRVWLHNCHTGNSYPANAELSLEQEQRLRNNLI

LRP2 = LRP2 (UniProt P98164); assay: as above
LRPPRC = LRPPRC (UniProt P42704); assay: as above
MAP1B = MAP1B (UniProt P46821); assay: as above
MAP1B, sequence (P46821 2-2468 limits assumed): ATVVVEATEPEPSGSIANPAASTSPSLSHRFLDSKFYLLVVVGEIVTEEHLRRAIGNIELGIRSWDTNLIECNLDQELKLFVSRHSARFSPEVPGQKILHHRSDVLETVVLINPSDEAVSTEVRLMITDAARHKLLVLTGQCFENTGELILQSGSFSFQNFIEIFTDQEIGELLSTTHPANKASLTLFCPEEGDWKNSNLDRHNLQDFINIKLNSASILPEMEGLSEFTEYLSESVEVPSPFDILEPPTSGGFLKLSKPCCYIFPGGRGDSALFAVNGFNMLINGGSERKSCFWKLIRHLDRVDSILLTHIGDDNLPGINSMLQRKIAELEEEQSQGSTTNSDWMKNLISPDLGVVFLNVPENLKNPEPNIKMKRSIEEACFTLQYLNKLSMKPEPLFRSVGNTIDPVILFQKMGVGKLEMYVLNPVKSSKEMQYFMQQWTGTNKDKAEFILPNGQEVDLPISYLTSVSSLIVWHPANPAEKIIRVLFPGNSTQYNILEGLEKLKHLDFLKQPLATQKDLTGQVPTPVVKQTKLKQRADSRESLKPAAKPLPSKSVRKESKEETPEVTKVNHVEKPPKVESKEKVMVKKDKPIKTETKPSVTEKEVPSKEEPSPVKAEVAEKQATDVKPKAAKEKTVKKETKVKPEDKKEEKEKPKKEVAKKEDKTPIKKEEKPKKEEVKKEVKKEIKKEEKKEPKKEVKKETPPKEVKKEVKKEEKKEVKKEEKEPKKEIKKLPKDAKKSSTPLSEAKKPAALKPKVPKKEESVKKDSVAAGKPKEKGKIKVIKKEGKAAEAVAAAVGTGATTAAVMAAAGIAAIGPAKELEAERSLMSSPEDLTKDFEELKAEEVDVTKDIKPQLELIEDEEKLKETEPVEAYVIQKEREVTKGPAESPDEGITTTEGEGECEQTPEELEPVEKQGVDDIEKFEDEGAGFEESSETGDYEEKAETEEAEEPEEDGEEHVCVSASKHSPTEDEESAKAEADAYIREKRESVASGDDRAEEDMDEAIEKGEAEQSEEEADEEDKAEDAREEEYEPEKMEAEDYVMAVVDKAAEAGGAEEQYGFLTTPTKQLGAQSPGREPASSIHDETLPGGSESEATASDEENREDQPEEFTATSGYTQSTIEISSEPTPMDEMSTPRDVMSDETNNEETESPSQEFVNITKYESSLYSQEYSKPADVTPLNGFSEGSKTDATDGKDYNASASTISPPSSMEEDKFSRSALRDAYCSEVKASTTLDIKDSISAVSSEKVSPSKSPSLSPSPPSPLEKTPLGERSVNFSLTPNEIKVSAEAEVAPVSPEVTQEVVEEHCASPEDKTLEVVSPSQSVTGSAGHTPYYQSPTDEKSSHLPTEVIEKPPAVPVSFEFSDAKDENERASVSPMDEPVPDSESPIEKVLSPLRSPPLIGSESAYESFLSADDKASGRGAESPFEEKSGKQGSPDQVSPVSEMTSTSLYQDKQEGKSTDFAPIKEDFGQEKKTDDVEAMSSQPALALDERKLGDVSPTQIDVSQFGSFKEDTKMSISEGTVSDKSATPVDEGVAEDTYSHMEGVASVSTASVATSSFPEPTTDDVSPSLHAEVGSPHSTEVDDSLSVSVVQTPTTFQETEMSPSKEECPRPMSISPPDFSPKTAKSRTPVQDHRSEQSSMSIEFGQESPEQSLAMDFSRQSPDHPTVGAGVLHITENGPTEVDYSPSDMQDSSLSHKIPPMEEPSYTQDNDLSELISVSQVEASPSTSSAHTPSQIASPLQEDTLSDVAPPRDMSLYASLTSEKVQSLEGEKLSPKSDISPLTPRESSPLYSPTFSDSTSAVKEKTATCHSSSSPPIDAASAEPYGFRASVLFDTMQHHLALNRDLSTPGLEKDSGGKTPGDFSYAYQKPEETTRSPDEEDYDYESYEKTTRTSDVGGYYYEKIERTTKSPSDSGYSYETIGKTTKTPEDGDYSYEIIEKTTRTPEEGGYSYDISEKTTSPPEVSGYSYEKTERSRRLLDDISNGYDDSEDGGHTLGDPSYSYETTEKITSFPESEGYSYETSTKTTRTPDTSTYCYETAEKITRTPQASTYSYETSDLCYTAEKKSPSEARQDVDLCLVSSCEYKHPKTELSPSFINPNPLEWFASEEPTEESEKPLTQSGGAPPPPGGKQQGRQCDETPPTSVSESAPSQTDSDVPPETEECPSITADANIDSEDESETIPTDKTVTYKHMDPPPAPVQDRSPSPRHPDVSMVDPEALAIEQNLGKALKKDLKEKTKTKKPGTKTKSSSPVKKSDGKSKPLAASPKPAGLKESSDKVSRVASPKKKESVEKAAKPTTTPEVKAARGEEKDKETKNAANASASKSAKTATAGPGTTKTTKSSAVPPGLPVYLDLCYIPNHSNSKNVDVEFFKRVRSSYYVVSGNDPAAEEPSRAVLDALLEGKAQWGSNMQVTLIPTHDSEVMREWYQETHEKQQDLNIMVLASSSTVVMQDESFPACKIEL

MYO1D = MYO1D (UniProt O94832); assay: as above
NCL = NCL (UniProt P19338); assay: as above
OS9 = OS9 (UniProt Q13438); assay: as above
OS9, sequence (Q13438 other isoform, or with tags, fused parts or gaps limits assumed): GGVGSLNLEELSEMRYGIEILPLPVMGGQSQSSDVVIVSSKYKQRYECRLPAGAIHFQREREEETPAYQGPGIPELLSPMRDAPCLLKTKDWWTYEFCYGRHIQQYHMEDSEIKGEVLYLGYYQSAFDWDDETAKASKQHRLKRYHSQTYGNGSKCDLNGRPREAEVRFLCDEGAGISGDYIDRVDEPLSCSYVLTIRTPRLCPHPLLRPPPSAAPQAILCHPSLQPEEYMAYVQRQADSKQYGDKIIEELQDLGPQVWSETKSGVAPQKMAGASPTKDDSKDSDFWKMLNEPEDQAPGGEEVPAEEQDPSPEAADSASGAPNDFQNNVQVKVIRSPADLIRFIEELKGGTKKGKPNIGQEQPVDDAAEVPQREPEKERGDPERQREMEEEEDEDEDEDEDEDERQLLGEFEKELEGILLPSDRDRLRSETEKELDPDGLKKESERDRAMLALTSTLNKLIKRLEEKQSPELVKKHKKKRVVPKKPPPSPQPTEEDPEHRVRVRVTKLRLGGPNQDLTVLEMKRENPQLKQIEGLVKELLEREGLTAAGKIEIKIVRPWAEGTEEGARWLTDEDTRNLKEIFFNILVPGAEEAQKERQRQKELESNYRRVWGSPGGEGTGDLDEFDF

PGK1 = PGK1 (UniProt P00558); assay: as above
PPIB = PPIB (UniProt P23284); assay: as above
RAB1B = RAB1B (UniProt Q9H0U4); assay: as above
RBMX = RBMX (UniProt P38159); assay: as above
RBMX, sequence (P38159 whole entry): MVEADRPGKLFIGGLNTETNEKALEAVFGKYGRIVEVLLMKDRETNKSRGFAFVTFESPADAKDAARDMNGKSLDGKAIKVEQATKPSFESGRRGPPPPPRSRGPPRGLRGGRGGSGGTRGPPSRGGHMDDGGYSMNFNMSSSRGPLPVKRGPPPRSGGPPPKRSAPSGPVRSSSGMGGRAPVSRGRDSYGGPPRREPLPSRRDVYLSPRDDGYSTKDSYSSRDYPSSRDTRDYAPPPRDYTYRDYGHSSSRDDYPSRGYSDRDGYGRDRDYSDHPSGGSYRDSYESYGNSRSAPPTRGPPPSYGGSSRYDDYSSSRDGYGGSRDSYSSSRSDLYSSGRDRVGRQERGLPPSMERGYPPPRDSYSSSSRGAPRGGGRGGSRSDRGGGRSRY

RNASE1 = RNASE1 (UniProt P07998); assay: as above
RPL18A = RPL18A (UniProt Q02543); assay: as above
RPL29 = RPL29 (UniProt P47914); assay: as above
SERPINE2 = SERPINE2 (UniProt P07093); assay: as above
SLC25A10 = SLC25A10 (UniProt Q9UBX3); assay: as above
SLC25A3 = SLC25A3 (UniProt Q00325); assay: as above
SMN1 = SMN1 (UniProt Q16637); assay: as above
TM9SF3 = TM9SF3 (UniProt Q9HD45); assay: as above
TNC = TNC (UniProt P24821); assay: as above
TRIM28 = TRIM28 (UniProt Q13263); assay: as above

Substance: IgG control (Millipore Sigma 12-371) (antibody)
- co-IP mass spectrometry count (ATP1A1 (human)): 0
- co-IP mass spectrometry count (CAPZA1 (human)): 0
- co-IP mass spectrometry count (DNAJA1 (human)): 0
- co-IP mass spectrometry count (RPL12 (human)): 5
- co-IP mass spectrometry count (RPL14 (human)): 8
- co-IP mass spectrometry count (RPL24 (human)): 3
- co-IP mass spectrometry count (RPL30 (human)): 4
- co-IP mass spectrometry count (SLC25A4 (human)): 0

Substance: C-terminal FLAG tagged B3GNT2 (from UniProt Q9NY97 1-397) (enzyme)
- co-IP/MS count (ABCF1): 2
- co-IP/MS count (ARPC2): 2
- co-IP/MS count (CALM2): 2
- co-IP/MS count (CEP170): 2
- co-IP/MS count (CNP): 7
- co-IP/MS count (CSPG4): 12
- co-IP/MS count (DPM1): 8
- co-IP/MS count (GNAS): 2
- co-IP/MS count (HSPH1): 7
- co-IP/MS count (LAMB1): 2
- co-IP/MS count (LOXL4): 8
- co-IP/MS count (LRP2): 2
- co-IP/MS count (LRPPRC): 9
- co-IP/MS count (MAP1B): 2
- co-IP/MS count (MYO1D): 2
- co-IP/MS count (NCL): 11
- co-IP/MS count (OS9): 9
- co-IP/MS count (PGK1): 2
- co-IP/MS count (PPIB): 2
- co-IP/MS count (RAB1B): 2
- co-IP/MS count (RBMX): 2
- co-IP/MS count (RNASE1): 2
- co-IP/MS count (RPL18A): 12
- co-IP/MS count (RPL29): 6
- co-IP/MS count (SERPINE2): 11
- co-IP/MS count (SLC25A10): 6
- co-IP/MS count (SLC25A3): 9
- co-IP/MS count (SMN1): 14
- co-IP/MS count (TM9SF3): 11
- co-IP/MS count (TNC): 10
- co-IP/MS count (TRIM28): 8
